Assay [1] has as its target T1, Fc-free Cryptic (human Cryptic extracellular domain after removal of the Fc with TEV protease) (human, UniProt P0CG37 26-155).
T1 construct: Same conflict about the C-terminal limit as for Cryptic-Fc (155 vs 167)
Briefly: SPR competition: 10 nM Activin B preincubated with Fc-free Cryptic, binding to captured ACTRIIA-Fc is blocked. As to the method: (§1) Receptor-ligand binding affinities were determined by SPR using the Biacore 2000. Anti-human IgG (Fc) antibody was immobilized onto four channels of a CM5 chip using amine coupling chemistry. […] A reference channel was monitored to account for nonspecific binding, drift, and bulk shifts.

For assay [2], the target named is T2, ALK4-Fc (human ALK4 extracellular domain fused to human IgG1 Fc) (human, UniProt P36896 24-110).
T2 construct: range 1-110; Captured on an anti-human Fc chip in SPR; also called ALK4-hIgg-Fc; human ALK4-Fc
The assay can be described thus: SPR (Biacore 2000), Fc fusion captured on anti-human Fc chip, ligand injected, 1:1 Langmuir fit. As to the method: (§2) Receptor-ligand binding affinities were determined by SPR using the Biacore 2000. Anti-human IgG (Fc) antibody was immobilized onto four channels of a CM5 chip using amine coupling chemistry. […] A reference channel was monitored to account for nonspecific binding, drift, and bulk shifts. […] After each binding cycle, the antibody surface was regenerated to base line. All experiments were carried out at 25° C. HBS-EPS buffer (0.01 M HEPES, […], 3 mM EDTA, 0.005% (v/v) Tween 20, pH 7.4) containing 0.1% BSA was used as running buffer. […] Sensograms were analyzed by double referencing. To obtain kinetic rate constants, the processed data was fitted to 1:1 Langmuir interaction model with mass transport limitation using Scrubber, Clamp or BiaEvaluation software. The equilibrium binding constant Kd was determined by calculating the ratio of binding rate constants kd/kₐ.

Assay [3] concerns the target T1, Fc-free Cryptic (human Cryptic …). Briefly: SPR competition: 1 nM Activin A preincubated with Fc-free Cryptic, binding to captured ACTRIIA-Fc is blocked. The procedure:
as §1

In assay [4] the target is T2, ALK4-Fc (human ALK4 extracellular …). The assay can be described thus: SPR, ALK4-Fc captured, Activin A series preincubated with excess Fc-free Cryptic injected. As to the method: as §2
On the technique in general: In SPR one partner is held on a chip, and binding of the other changes the refractive index at the surface.

T2 sequence (P36896 other isoform, or with tags, fused parts or gaps limits assumed, form in doubt): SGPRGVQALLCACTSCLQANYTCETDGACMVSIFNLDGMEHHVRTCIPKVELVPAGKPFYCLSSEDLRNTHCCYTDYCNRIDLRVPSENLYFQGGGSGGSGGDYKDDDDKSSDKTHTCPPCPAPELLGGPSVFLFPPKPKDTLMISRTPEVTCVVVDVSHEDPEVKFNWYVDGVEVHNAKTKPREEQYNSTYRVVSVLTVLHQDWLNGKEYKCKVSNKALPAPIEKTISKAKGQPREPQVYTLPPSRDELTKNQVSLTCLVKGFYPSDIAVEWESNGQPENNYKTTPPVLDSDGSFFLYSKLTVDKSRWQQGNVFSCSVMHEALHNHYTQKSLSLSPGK

B1: Activin B (ligand, UniProt P09529 293-407, looked up)
chain: GLECDGRTNLCCRQQFFIDFRLIGWNDWIIAPTGYYGNYCEGSCPAYLAGVPGSASSFHTAVVNQYRMRGLNPGTVNSCCIPTKLSTMSMLYFDDEYNIVKRDVPNMIVEECGCA
notes: also called recombinant Activin B
Turning to B1, the binding result in assay [1] is given as “binds”.

B2: Activin A (ligand)
chain: GLECDGKVNICCKKQFFVSFKDIGWNDWIIAPSGYHANYCEGECPSHIAGTSGSSLSFHSTVINHYRMRGHSPFANLKSCCVPTKLRPMSMLYYDDGQNIIKKDIQNMIVEECGCS
notes: also called homodimer of inhibin beta A subunits
The Kd is the free concentration of one partner at which half of the binding sites on the other are occupied at equilibrium, for simple one-to-one binding. A low value points to higher affinity. One may read the koff as a measure of how fast the partners let go of each other. Higher therefore signals fast dissociation. By kon is commonly meant the rate constant with which the complex forms. Lower therefore signals slow association. Turning to B2, in assay [2], binding was characterised by a dissociation constant (Kd) of 4 nM, the koff stood at 0.0018 s⁻¹ and the kon was determined as 450000 M⁻¹ s⁻¹. Moreover, in assay [3], the binding result is “binds”.

B3: Activin A/Cryptic complex (Activin A preincubated with excess Fc-free Cryptic) (other)
chain 1: GLECDGKVNICCKKQFFVSFKDIGWNDWIIAPSGYHANYCEGECPSHIAGTSGSSLSFHSTVINHYRMRGHSPFANLKSCCVPTKLRPMSMLYYDDGQNIIKKDIQNMIVEECGCS
chain 2: not shown
In assay [4], B3 gave an equilibrium dissociation constant (Kd) of 2.6 nM, a koff of 0.0016 s⁻¹ and a kon of 620000 M⁻¹ s⁻¹.

For the origin of these results see patent US20180215801A1 (BOARD OF TRUSTEES OF MICHIGAN STATE UNIVERSITY, published 2018).
